According to patent US20230391828A1, “REGULATORS OF CELL DIVISION” (TECHNISCHE UNIVERSITÄT DRESDEN, priority 2020, published 2023):
Bridge positions count the residues as written; N and C are the ends. Square brackets hold non-standard residues; d marks the D form. Pra = C#CC[C@H](N)C(=O)O

Tests used:
[1] = biological target: T1, c-CBL (Homo sapiens, UniProt P22681); test: Pull-down binding assay in HeLa K cell extract, c-CBL; conditions: azide agarose beads, Western blot
T1 construct: endogenous in cells; host or cells: HeLa K cell extract
Method: (§1) HeLa K cell pellet was re-suspended in the extraction buffer (30 mM HEPES pH 7.5, 175 mM NaCl, 2.5 mM MgCl2, 0.25% NP40, 10% glycerol, 1 mM DTT supplied with complete protease inhibitor cocktail (Roche), PhosSTOP phosphatase inhibitors (Roche), 1 mM PMSF, 10 μM MG132) and incubated for 20 min on ice, followed by centrifugation to clear the lysate for 15 min at 4° C. 16,100 g. In the meantime, inhibitor molecules containing the propargyl-Gly-OH (Pra) chemical group were covalently attached to the azide agarose resin (Jena Bioscience) by Cu(I)-catalysed azide-alkyne cycloaddition reaction. Specifically, the inhibitor molecules were mixed with azide agarose resin in ratio 0.125 μmol inhibitor/20 μl agarose resin. The reaction was catalysed by 0.1 mM CuSO4, 0.5 mM THPTA (Sigma-Aldrich) and 5 mM Sodium ascorbate and was performed on the rotating wheel for 30 min at room temperature in the volume of 1 ml. Subsequently, the resin was washed five times with the extraction buffer. The inhibitor-agarose resin was added to 2 mg of HeLa K cell extract and incubated at 4° C. for 2 h. Afterwards, the resin was washed four times with the extraction buffer. Pull-down proteins were eluted by incubation with pre-warmed 1×LDS sample buffer for 10 min at room temperature followed by taking supernatant supplemented with 100 mM DTT and boiling for 10 min. […]

[2] = biological target: T2, BMI-1 (Homo sapiens, UniProt P35226); test: Pull-down binding assay in HeLa K cell extract, BMI-1; conditions: azide agarose beads, Western blot
T2 construct: endogenous in cells; host or cells: HeLa K cell extract
T2 sequence (P35226 1-326): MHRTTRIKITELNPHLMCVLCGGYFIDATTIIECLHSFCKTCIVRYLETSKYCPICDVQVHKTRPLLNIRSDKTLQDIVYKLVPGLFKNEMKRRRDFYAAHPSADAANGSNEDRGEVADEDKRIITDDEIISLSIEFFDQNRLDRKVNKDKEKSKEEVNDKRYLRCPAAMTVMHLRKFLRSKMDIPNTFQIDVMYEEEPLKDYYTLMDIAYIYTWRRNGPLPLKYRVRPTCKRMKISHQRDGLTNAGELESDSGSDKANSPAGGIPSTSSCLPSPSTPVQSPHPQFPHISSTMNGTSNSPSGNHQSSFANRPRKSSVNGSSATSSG
Method: as §1

[3] = biological target: T3, RBX1 (Homo sapiens, UniProt P62877); test: Pull-down binding assay in HeLa K cell extract, RBX1; conditions: azide beads, Western blot
T3 construct: endogenous in cells; host or cells: HeLa K cell extract
Method: (§2) For the protein transfer, the 0.45 μm Immobilon-FL PVDF membrane (Merck Millipore) was used. The membrane was activated in ethanol and then transferred to the Blotting buffer (50 mM SDS-MOPS, 50 mM Tris base, 0.1% SDS, 1 mM EDTA, 20% EtOH). The proteins were transferred using a wet transfer for 1.5 h at 400 mA. Subsequently, the membrane was incubated with the blocking solution, 10% milk in PBS-T (0.02% Tween-20 in PBS), for 1 h at room temperature. To detect proteins of the interest, the membrane was incubated with primary antibodies overnight at 4° C. Followed by washing the membrane 3 times 10 min with PBS-T and incubation with IRDye fluorescently labelled secondary antibodies for 1 h. Prior detection, the membrane was twice washed with PBS-T for 10 min and once with PBS for 10 min. The detection was done using the quantitative near-infrared scanning system Odyssey (LI-COR Biosciences).
HeLa K cell pellet was re-suspended in the extraction buffer (30 mM HEPES pH 7.5, 175 mM NaCl, 2.5 mM MgCl2, 0.25% NP40, 10% glycerol, 1 mM DTT) supplemented with 10 μM MG132 (VWR), 1 mM PMSF (Sigma-Aldrich), complete protease inhibitor cocktail (Roche) and PhosSTOP phosphatase inhibitors (Roche) and incubated for 20 min on ice, followed by centrifugation of cell debris for 15 min at 4° C. 16 100 g. […]

[4] = biological target: T4, MDM2 (Homo sapiens, UniProt Q00987); test: Pull-down binding assay in HeLa K cell extract, MDM2; conditions: azide agarose beads, Western blot
T4 construct: endogenous in cells; host or cells: HeLa K cell extract
Method: as §1

[5] = biological target: T5, TRAF2 (Homo sapiens, UniProt Q12933); test: Pull-down binding assay in HeLa K cell extract, TRAF2; conditions: azide agarose beads, Western blot
T5 construct: endogenous in cells; host or cells: HeLa K cell extract
T5 sequence (Q12933 1-501): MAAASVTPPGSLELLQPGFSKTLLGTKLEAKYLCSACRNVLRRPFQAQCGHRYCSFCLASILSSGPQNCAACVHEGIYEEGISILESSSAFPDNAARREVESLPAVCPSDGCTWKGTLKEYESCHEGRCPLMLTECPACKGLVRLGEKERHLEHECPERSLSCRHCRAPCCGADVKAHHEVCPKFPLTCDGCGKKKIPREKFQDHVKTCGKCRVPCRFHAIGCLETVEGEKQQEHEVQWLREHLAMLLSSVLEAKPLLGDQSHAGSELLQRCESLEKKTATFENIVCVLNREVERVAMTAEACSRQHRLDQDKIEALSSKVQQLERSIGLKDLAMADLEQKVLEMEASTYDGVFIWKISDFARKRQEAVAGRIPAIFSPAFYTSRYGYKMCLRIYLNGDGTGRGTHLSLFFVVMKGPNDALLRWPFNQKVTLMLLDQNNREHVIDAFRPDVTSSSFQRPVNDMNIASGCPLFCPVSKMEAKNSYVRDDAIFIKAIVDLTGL
Method: as §1

[6] = biological target: T6, APC/C (APC11) (Homo sapiens, UniProt Q9NYG5); test: Pull-down binding assay in HeLa K cell extract, APC/C; conditions: Pra peptide clicked to azide agarose or magnetic beads, Western blot
T6 construct: endogenous in cells; host or cells: HeLa K cell extract
Method: as §2
HeLa K cell pellet was re-suspended in the extraction buffer (30 mM HEPES pH 7.5, 175 mM NaCl, 2.5 mM MgCl2, 0.25% NP40, 10% glycerol, 1 mM DTT) supplemented with 10 μM MG132 (VWR), 1 mM PMSF (Sigma-Aldrich), complete protease inhibitor cocktail (Roche) and PhosSTOP phosphatase inhibitors (Roche) and incubated for 20 min on ice, followed by centrifugation of cell debris for 15 min at 4° C. 16 100 g. In mean time, inhibitor molecules containing Propargyl (Pra) chemical group were covalently attached to the azide agarose or azide magnetic resin (Jena Bioscience) by Cu(I)-catalysed azide-alkyne cycloaddition reaction. Specifically, the inhibitor molecules were mixed with azide agarose resin in ratio 0.125 μmol inhibitor/25 μl agarose resin and azide magnetic resin in ratio 0.018 μmol inhibitor/20 μl magnetic resin. The reaction was catalysed by 1 mM CuSO4, 0.1 mM TBTA (Sigma-Aldrich) and 1 mM Sodium ascorbate and was performed on the rotating wheel for 30 min at room temperature in the volume of 1 ml. Subsequently, the resin was washed 5 times with the extraction buffer. The inhibitor-agarose resin was added to 1 mg of HeLa K cell extract and the inhibitor-magnetic resin was added to 0.5 mg of HeLa K cell extract followed by incubation at 4° C. for 2 h. Followed by washing the resin 5 times with the extraction buffer. Pull-down proteins were eluted by boiling for 15 min with 1×LDS sample buffer supplemented with 100 mM DTT (agarose resin) or by incubation with 1×LDS sample buffer for 10 min at room temperature followed by taking supernatant that was supplemented with 100 mM DTT and boiling it for 10 min. Samples were subjected to SDS PAGE and Western blot analysis.
as §1, with “ml.” for “ml. Subsequently, the resin was washed five times with the extraction buffer. The inhibitor-agarose resin was added to 2 mg of HeLa K cell extract and incubated at 4° C. for 2 h. Afterwards, the resin was washed four times with the extraction buffer. Pull-down proteins were eluted by incubation with pre-warmed 1×LDS sample buffer for 10 min at room temperature followed by taking supernatant supplemented with 100 mM DTT and boiling for 10 min.”

[7] = biological target: T7, c-IAP1 (Homo sapiens, UniProt Q13490); test: Pull-down binding assay in HeLa K cell extract, c-IAP1; conditions: azide agarose beads, Western blot
T7 construct: endogenous in cells; host or cells: HeLa K cell extract
Method: as §1

[8] = biological target: T8, BRCA1 (Homo sapiens, UniProt P38398); test: Pull-down binding assay in HeLa K cell extract, BRCA1; conditions: azide agarose beads, Western blot
T8 construct: endogenous in cells; host or cells: HeLa K cell extract
Method: as §1

T4 sequence (Q00987 whole entry): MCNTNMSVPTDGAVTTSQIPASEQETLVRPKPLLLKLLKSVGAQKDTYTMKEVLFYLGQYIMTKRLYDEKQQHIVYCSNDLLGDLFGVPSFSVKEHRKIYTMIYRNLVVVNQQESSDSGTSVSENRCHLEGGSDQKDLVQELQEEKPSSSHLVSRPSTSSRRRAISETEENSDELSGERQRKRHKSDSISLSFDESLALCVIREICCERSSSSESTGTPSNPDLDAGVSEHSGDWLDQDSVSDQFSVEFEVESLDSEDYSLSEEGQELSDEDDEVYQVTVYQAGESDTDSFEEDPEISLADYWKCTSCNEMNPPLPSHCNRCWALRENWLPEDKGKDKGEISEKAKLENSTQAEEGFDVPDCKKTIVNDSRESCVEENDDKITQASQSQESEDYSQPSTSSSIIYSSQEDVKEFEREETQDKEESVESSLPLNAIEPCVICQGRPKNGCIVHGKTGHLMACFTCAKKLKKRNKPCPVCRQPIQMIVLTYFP
T7 sequence (Q13490 whole entry): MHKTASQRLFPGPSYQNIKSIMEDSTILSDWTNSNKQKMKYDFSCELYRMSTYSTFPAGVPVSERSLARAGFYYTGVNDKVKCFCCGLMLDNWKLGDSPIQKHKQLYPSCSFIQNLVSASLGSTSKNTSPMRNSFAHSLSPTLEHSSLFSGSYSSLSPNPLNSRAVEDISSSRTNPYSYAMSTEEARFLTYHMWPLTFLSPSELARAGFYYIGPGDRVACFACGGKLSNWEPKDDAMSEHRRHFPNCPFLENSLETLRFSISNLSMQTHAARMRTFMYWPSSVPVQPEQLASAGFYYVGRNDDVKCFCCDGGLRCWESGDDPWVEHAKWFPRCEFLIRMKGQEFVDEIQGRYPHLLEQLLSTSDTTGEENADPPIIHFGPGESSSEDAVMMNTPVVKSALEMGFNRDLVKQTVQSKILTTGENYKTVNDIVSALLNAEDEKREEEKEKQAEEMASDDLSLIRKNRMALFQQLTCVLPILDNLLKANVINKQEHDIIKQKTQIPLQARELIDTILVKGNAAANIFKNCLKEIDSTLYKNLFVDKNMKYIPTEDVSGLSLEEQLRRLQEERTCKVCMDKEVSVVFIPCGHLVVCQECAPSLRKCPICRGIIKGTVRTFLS
T8 sequence (P38398 whole entry): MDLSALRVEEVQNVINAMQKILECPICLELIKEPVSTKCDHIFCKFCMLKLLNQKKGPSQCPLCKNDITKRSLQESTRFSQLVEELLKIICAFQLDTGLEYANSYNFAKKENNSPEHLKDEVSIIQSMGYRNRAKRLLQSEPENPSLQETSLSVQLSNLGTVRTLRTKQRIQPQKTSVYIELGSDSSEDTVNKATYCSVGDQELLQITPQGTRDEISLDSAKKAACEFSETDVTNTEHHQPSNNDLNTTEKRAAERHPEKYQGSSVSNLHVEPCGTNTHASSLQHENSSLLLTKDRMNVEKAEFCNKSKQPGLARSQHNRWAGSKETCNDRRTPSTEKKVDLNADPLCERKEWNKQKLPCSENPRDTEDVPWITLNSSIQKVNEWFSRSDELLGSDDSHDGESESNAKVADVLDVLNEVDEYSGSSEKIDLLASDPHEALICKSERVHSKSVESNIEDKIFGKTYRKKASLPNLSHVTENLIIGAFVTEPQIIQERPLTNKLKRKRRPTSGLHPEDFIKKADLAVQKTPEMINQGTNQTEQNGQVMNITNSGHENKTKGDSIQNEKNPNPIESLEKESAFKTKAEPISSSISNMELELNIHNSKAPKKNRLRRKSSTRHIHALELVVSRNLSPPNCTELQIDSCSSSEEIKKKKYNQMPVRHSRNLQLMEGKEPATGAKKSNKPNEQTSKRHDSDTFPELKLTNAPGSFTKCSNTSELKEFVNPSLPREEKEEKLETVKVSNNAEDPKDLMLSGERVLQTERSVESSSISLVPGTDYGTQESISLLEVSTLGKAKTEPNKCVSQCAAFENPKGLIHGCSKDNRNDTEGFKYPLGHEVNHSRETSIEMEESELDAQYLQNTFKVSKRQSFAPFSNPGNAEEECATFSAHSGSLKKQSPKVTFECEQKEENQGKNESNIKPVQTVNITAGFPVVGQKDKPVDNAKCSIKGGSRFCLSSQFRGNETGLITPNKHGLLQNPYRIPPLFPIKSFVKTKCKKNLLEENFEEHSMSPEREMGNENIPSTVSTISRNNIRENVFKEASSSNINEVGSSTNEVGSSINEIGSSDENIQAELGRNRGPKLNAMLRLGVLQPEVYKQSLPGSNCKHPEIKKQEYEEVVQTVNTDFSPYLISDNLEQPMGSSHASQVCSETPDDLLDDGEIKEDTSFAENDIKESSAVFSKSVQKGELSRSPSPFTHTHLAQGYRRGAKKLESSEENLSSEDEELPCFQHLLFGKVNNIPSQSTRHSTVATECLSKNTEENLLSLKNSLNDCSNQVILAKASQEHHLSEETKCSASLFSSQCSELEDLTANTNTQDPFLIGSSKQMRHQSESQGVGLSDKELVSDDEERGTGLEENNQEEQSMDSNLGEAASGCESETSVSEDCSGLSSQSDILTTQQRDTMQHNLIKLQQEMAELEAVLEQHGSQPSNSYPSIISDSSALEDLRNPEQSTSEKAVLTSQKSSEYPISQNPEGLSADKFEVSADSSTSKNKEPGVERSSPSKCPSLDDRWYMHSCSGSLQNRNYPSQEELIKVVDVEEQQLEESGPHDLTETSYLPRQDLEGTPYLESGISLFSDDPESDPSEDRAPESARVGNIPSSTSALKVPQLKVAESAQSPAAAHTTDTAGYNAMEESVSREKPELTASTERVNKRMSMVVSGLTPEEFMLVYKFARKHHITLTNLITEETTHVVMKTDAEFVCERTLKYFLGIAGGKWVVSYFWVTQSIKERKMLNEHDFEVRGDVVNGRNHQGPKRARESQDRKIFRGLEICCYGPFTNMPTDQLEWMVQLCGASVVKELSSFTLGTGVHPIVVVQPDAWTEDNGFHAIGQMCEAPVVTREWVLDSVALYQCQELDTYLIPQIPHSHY
T3 sequence (P62877 whole entry): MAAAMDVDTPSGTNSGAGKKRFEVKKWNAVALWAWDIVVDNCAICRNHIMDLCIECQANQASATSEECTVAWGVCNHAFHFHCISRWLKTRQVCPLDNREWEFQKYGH

Ac-cyclo(3,12)-PraRCHWGPRTFWCR-NH2 (Ac-[Pra]RCHWGPRTFWCR-NH2; disulfide 3-12; SMILES C#CC[C@H](NC(C)=O)C(=O)N[C@@H](CCCNC(=N)N)C(=O)N[C@H]1CSSC[C@@H](C(=O)N[C@@H](CCCNC(=N)N)C(N)=O)NC(=O)[C@H](Cc2c[nH]c3ccccc23)NC(=O)[C@H](Cc2ccccc2)NC(=O)[C@H]([C@@H](C)O)NC(=O)[C@H](CCCNC(=N)N)NC(=O)[C@@H]2CCCN2C(=O)CNC(=O)[C@H](Cc2c[nH]c3ccccc23)NC(=O)[C@H](Cc2c[nH]cn2)NC1=O) [G1-3Pra]
binds: binding to c-CBL (pull-down) [1] | binding to BMI-1 (pull-down) [2] | binding to RBX1 (pull-down) [3] | binding to MDM2 (pull-down) [4] | binding to TRAF2 (pull-down) [5] | binding to the APC/C (pull-down) [6] | binding to c-IAP1 (pull-down) [7] | binding to BRCA1 (pull-down) [8]
